B1: wt BfrB (Pseudomonas aeruginosa bacterioferritin B, 24-mer) (natural protein)
chain: not shown
B2: wt Bfd (C43S mutant of P. aeruginosa bacterioferritin-associated ferredoxin) (natural protein, Pseudomonas aeruginosa)
chain: MYVCLCQGVTDNQIRDAIYEGCCSYREVREATGVGTQCGKCASLAKQVVRETLNDLQSAQPVPAFGTTAFVAA

The data set “SEC” concerns the molecule itself. The data set can be described thus: SEC.
The target in data set [1] is B2. The experiment in a line: ITC.
Data set [2] has as its target B1. The data set can be described thus: SPR.
Data set [3] concerns the target B1. The experiment in a line: SPR. This is another data set of the same source.
Data set [4] has as its target B1. The data set can be described thus: ITC.
For data set [5], the target named is B1. The experiment in a line: SPR. The source holds these as a separate data set.
A further data set addresses E85A BfrB (Pseudomonas aeruginosa, UniProt Q9HY79 1-158, E85A). The data set can be described thus: SPR.
A further data set deals with L68A BfrB (Pseudomonas aeruginosa, UniProt Q9HY79 1-158, L68A). The experiment in a line: SPR.
The target in another data set is E81A BfrB (Pseudomonas aeruginosa, UniProt Q9HY79 1-158, E81A). The data set can be described thus: SPR.
The target of data set [6] is B1. The experiment in a line: SPR. This is another data set of the same source.

With B1, in “SEC”, the binding result is “binds”. The molecule also yielded a dH in [1] of 1.6 ± 0.3 kcal/mol.

As for B2, the Kd in data set [2] stood at 3.3 ± 0.5 µM; in [3] it was 2.6 ± 0.4 µM; in data set [4] it was 4.2 ± 0.4 µM; in the data set with E85A BfrB it was 590 ± 2 µM; with L68A BfrB, 298 ± 20.5 µM; with E81A BfrB, 258 ± 21.5 µM. Also, the off-rate (koff) in data set [3] stood at 0.069 ± 0.01 s⁻¹. The kon in [3] was found to be 26000 ± 2000 M⁻¹ s⁻¹. In addition, the “stoichiometry N” value in data set [5] is 12.7 Bfd per 24-mer BfrB.

B3: Y2F Bfd (natural protein, Pseudomonas aeruginosa)
chain: MFVCLCQGVTDNQIRDAIYEGCCSYREVREATGVGTQCGKCASLAKQVVRETLNDLQSAQPVPAFGTTAFVAA
Consider B3, for which the Kd in data set [6] is 10.7 ± 0.2 µM.

B4: L5A Bfd (natural protein, Pseudomonas aeruginosa)
chain: MYVCACQGVTDNQIRDAIYEGCCSYREVREATGVGTQCGKCASLAKQVVRETLNDLQSAQPVPAFGTTAFVAA
As for B4, the equilibrium dissociation constant (Kd) in [6] stood at 82 ± 2.5 µM. Against the preceding molecule, the Kd is about 7.7-fold higher.

B5: K40A Bfd (natural protein, Pseudomonas aeruginosa)
chain: MYVCLCQGVTDNQIRDAIYEGCCSYREVREATGVGTQCGACASLAKQVVRETLNDLQSAQPVPAFGTTAFVAA
B5 displayed a Kd in data set [6] of 7.7 ± 0.5 µM.

The record behind these values is paper PMC4708090 (Biochemistry, 2015).
